Source: article PMC5350102, “Efficient Binding of the NOS1AP C-Terminus to the nNOS PDZ Pocket Requires the Concerted Action of the PDZ Ligand Motif, the Internal ExF Site and Structural Integrity of an Independent Element” (Frontiers in Molecular Neuroscience, 2017)
Where a chain is given by its changes, count along the chain named. Names may count otherwise. “And” between values parts separate entries of the source, which are not always exact repeats. Equal entries are not always repeated. Where no end group is shown, it is not given here. fluorescein = fluorescein label at the peptide N-terminus

B1: F-GDLV (fluorescein-RRRRWGDLV) (peptide)
peptide: fluorescein-RRRRWGDLV
notes: also called F-GLDV; source: synthetic peptide, bought: Genic Bio (Shanghai, China)
B2: NOS1AP[432–506] cleaved from GST (domain or fragment, human, UniProt O75052 432-506, looked up)
chain: RFLPPEDTPPPAQGEALLGGLELIKFRESGIASEYESNTDESEERDSWSQEELPRLLNVLQRQELGDGLDDEIAV
B3: His-TAT-NOS1AP[400–503], denatured (domain or fragment, human, UniProt O75052 400-503, looked up)
chain: HSPPLGAGLADFAHPAGSPLGRRDCLVKLECFRFLPPEDTPPPAQGEALLGGLELIKFRESGIASEYESNTDESEERDSWSQEELPRLLNVLQRQELGDGLDDE
notes: also called denatured NOS1AP[400–503]; NOS1AP 400-503 His-TAT fusion, Denatured
B4: His-TAT-NOS1AP[400–503] E429A, denatured (domain or fragment, human, UniProt O75052 400-503, looked up)
chain: B3 chain with E30A
notes: NOS1AP, human, residues 400-503 with E429A in the ExF motif
B5: Peptide GDLV (NH2-RRRRWGDLV-COOH) (peptide)
peptide: H-RRRRWGDLV-OH
notes: also called unlabelled GDLV; source: synthetic peptide, bought: Genic Bio (Shanghai, China)
B6: His-TAT-NOS1AP[400–506], denatured (domain or fragment, human, UniProt O75052 400-506, looked up)
chain: HSPPLGAGLADFAHPAGSPLGRRDCLVKLECFRFLPPEDTPPPAQGEALLGGLELIKFRESGIASEYESNTDESEERDSWSQEELPRLLNVLQRQELGDGLDDEIAV
notes: Same construct as m10, but prepared under denaturing conditions
B7: NOS1AP[400–506] F431A cleaved from GST (domain or fragment, human, UniProt O75052 400-506, looked up)
chain: B6 chain with F32A
B8: Peptide EIAV (NH2-DSLDDEIAV-COOH) (peptide)
peptide: H-DSLDDEIAV-OH
notes: last 9 amino acids of rat/mouse NOS1AP; also called NOS1AP-9C; DSLDDEIAV (NOS1AP-9C); source: synthetic peptide, synthesized by Xigen AG (Lausanne, Switzerland)

Assays:
Details in all cases: both partners purified
His-nNOS[1–155] [1] = target: T1, His-nNOS[1–155] (human, UniProt P29475-1 1-155); assay: fluorescence polarisation; increasing His-nNOS(1–155) added to 1 μM F-GDLV in 50 mM Tris pH 7.4, 100 mM NaCl, 1 mM EDTA, 0.1% BSA; one-site quadratic fit; triplicates from each of two nNOS batches
T1 construct: Two batches were used

His-nNOS[1–155] [2] = target: T1, His-nNOS[1–155]; assay: as above; remark: listed apart in the source
His-nNOS[1–155] [3] = target: T1, His-nNOS[1–155]; assay: fluorescence polarisation; competition FP: 1 μM F-GDLV, 4 μM His-nNOS(1–155), increasing competitor; approximate Kc (dissociation constant of the competitor, affinity for the nNOS PDZ pocket) from the single-site competition formula
GST-nNOS[1–155] = target: T2, GST-nNOS[1–155] (human, UniProt P29475-1 1-155); assay: pull-down; solid-phase no-wash binding assay: 5 μl beads bound to 1 μg GST-fused nNOS protein (or GST for background) rotated with His-TAT-NOS1AP peptides for 1 h at 4°C; unbound removed by centrifugation in filter plates, no wash; bound peptide quantified by fluorescent immunoblot; GST background subtracted; 1-site quadratic fit
T2 construct: also called GST-fused nNOS protein

| Binder | Ki (His-nNOS[1–155] [3]) | Kd (GST-nNOS[1–155]) | other results |
| --- | --- | --- | --- |
| B1 |  |  | Kd (His-nNOS[1–155] [1]): 10.2 µM and 11.2 µM; Kd (His-nNOS[1–155] [2]): 10.7 µM |
| B2 | > 10 µM |  |  |
| B3 |  | 5.3 µM |  |
| B4 |  | 99 µM |  |
| B5 | 10.7 µM |  |  |
| B6 |  | 2.4 µM |  |
| B7 | > 10 µM |  |  |
| B8 | > 300 µM |  |  |
